As for “Recombinant Mouse u-Plasminogen Activator/Urokinase”, the “cleavage ratio (PAR) on peptide array, mouse uPA 1000 nM” value was “also showed higher cleavage ratios for mouse uPA than the sequence shown as SEQ ID NO: 3” with SEQ ID NO 17999; “showed higher cleavage ratios than the sequence shown as SEQ ID NO: 2 for all the cleavages by human uPA, human MT-SP1, and mouse uPA” in the series on SEQ ID NOs: 5-3204; “also showed higher cleavage ratios for mouse uPA than the sequence shown as SEQ ID NO: 3” in the series with SEQ ID NO 17202; “also showed higher cleavage ratios for mouse uPA than the sequence shown as SEQ ID NO: 3” in the series on SEQ ID NO 17996; “also showed higher cleavage ratios for mouse uPA than the sequence shown as SEQ ID NO: 3” in the series with SEQ ID NO 17995; “also showed higher cleavage ratios for mouse uPA than the sequence shown as SEQ ID NO: 3” in the series with SEQ ID NO 17994. Besides, the “cleavage ratio (PAR) on peptide array, mouse uPA 1000 nM” value in the series with SEQ ID NO 17997, with SEQ ID NO 17998 and in the series with SEQ ID NO 17203 was “also showed higher cleavage ratios for mouse uPA than the sequence shown as SEQ ID NO: 3” each time.

On to “Recombinant Human u-Plasminogen Activator/Urokinase”, for which the “cleavage ratio (PAR) on peptide array, human uPA 1000 nM” value in the series with SEQ ID NO 18003 was “showed higher cleavage ratios than the sequence shown as SEQ ID NO: 3 for both the cleavages by human uPA and human MT-SP1”; with SEQ ID NO 17999, “showed higher cleavage ratios than the sequence shown as SEQ ID NO: 3 for both the cleavages by human uPA and human MT-SP1”; with SEQ ID NOs: 17202-17993, “showed higher cleavage ratios than the sequence shown as SEQ ID NO: 3 for both the cleavages by human uPA and human MT-SP1”; in the series on SEQ ID NO 18000, “showed higher cleavage ratios than the sequence shown as SEQ ID NO: 3 for both the cleavages by human uPA and human MT-SP1”; with SEQ ID NO 17996, “showed higher cleavage ratios than the sequence shown as SEQ ID NO: 3 for both the cleavages by human uPA and human MT-SP1”; in the series on SEQ ID NO 17995, “showed higher cleavage ratios than the sequence shown as SEQ ID NO: 3 for both the cleavages by human uPA and human MT-SP1”. Besides, the “cleavage ratio (PAR) on peptide array, human uPA 1000 nM” value with SEQ ID NOs: 5-17201 is “showed higher cleavage ratios than the sequence shown as SEQ ID NO: 2 for both the cleavages by human uPA and human MT-SP1”; with SEQ ID NO 17994, “showed higher cleavage ratios than the sequence shown as SEQ ID NO: 3 for both the cleavages by human uPA and human MT-SP1”; with SEQ ID NO 17997, “showed higher cleavage ratios than the sequence shown as SEQ ID NO: 3 for both the cleavages by human uPA and human MT-SP1”; with SEQ ID NO 17998 it was “showed higher cleavage ratios than the sequence shown as SEQ ID NO: 3 for both the cleavages by human uPA and human MT-SP1”; in the series with SEQ ID NO 18001, “showed higher cleavage ratios than the sequence shown as SEQ ID NO: 3 for both the cleavages by human uPA and human MT-SP1”; in the series with SEQ ID NO 18002 it was “showed higher cleavage ratios than the sequence shown as SEQ ID NO: 3 for both the cleavages by human uPA and human MT-SP1”.

The values above are taken from US20220315909.

Chain of Recombinant Mouse u-Plasminogen Activator/Urokinase (chain, as listed by the source): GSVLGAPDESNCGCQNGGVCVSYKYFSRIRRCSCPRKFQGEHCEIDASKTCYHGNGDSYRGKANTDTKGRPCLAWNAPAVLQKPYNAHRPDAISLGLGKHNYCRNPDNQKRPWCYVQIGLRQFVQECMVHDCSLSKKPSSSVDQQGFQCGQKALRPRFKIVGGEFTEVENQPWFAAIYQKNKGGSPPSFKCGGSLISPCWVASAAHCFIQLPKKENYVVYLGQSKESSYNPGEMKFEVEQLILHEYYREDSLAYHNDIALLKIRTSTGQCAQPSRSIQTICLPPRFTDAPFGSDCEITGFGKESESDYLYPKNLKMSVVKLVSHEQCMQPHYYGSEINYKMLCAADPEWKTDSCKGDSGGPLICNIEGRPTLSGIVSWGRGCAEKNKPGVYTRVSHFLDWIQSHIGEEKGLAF
